{"source": "patent US20090092595A1", "about": "“Suppression of sPLA2-integrin binding for treating an inflammatory condition” (REGENTS OF THE UNIVERSITY OF CALIFORNIA, priority 2007, published 2009)", "key": {"α4-K562 cells": {"tested_on": "α4-K562 cells", "assay": "Proliferation of α4-K562 cells (MTS assay)", "format": "cell-based, human", "settings": "serum-starved 48 h, stimulated 48 h", "description": "Cells were serum-starved for 48 h and stimulated with sPLA2-IIA for 48 h. Cell proliferation was determined by MTS assays. Data is shown as means+/−SEM of triplicate experiments. α4- and αvβ3-K562 cells proliferated faster than mock-K562 cells. […] Serum-starved cells were stimulated with wt or mutant sPLA2-IIA (0.5 μg/ml) for 48 h. Data is shown as means+/−SEM of triplicate experiments. α4-K562 and αvβ3-K562 cells grew faster than mock K562 cells with wt and H47Q sPLA2-IIA (*P<0.05 by t-test).\n(§1) Cell proliferation and MAP kinase activation K562 cells and human monocytic lymphoma U937 cells were maintained in RPM11640 medium supplemented with 10% FCS. Cells were plated in 96-well plates (1×10^4 cells/well), and serum-starved for 48 h at 37° C. in 5% CO2 atmosphere. Cells were then treated with or without sPLA2-IIA in medium without serum for 48 h. Cell proliferation was determined by MTS assays using the Aqueous Cell Proliferation Assay Kit (Promega). For MAP kinase activation assays, cells were serum starved in RPMI1640 medium supplemented with 0.4% FCS for 24 h, and stimulated with Wt and mutant sPLA2-IIA (0.5 μg/ml) for 10 min at 37° C. ERK1/2 activation was measured as described (Mori, S. et al., J Biol Chem, in press (2008))."}, "[1]": {"tested_on": "mutant α4 subunit (Tyr-189 and Gly-190 to Ala)", "assay": "Adhesion of CHO cells expressing wt or mutant α4 to sPLA2-IIA", "format": "cell-based", "description": "FIG. 5. sPLA2-IIA binding to integrin α4β1. a) Cells expressing recombinant α4β1 adhered to wt sPLA2-IIA better than cells expressing other recombinant integrins. We used transfected K562 cells clonally express different human integrins for adhesion assays. Low background adhesion to BSA was subtracted. […] Wells of 96-well microtiter plate were coated with VCAM-1 and FN-GST, and incubated with U937 cells (1×10^4 cells/plate) in the presence of the increasing concentrations of sPLA2-IIA for 1 h at 37° C. Adherent cells were quantified using endogenous phosphatase after gently rinsing the well to remove unbound cells. Data is shown as means+/−SEM of triplicate experiments. *P=0.0101 and **P<0.0001 by t-test. c) Amino acid sequence in the α4 subunit that is critical for VCAM-1 and CS-1 binding is also critical for sPLA2-IIA binding. CHO cells that clonally express wt or mutant α4 (Irie, A. et al., Embo J, 14(22): 5550-5556 (1995)) were used for adhesion assays. Data is shown as means+/−SEM of triplicate experiments. Similar results were obtained using K562 cells expressing α4 mutants (not shown).\nOther methods We performed docking simulation of interaction between sPLA2-IIA and integrin αvβ3 using the AutoDock3 as previously described (Mori, S. et al., J Biol Chem, in press (2008)). […]"}, "soluble integrin αvβ3": {"target": "T1, soluble integrin αvβ3 (Homo sapiens, UniProt P05106+P06756)", "T1 construct": "Recombinant soluble αvβ3 was synthesized as previously described; made in house", "T1 sequence (P06756 31-992 limits assumed)": "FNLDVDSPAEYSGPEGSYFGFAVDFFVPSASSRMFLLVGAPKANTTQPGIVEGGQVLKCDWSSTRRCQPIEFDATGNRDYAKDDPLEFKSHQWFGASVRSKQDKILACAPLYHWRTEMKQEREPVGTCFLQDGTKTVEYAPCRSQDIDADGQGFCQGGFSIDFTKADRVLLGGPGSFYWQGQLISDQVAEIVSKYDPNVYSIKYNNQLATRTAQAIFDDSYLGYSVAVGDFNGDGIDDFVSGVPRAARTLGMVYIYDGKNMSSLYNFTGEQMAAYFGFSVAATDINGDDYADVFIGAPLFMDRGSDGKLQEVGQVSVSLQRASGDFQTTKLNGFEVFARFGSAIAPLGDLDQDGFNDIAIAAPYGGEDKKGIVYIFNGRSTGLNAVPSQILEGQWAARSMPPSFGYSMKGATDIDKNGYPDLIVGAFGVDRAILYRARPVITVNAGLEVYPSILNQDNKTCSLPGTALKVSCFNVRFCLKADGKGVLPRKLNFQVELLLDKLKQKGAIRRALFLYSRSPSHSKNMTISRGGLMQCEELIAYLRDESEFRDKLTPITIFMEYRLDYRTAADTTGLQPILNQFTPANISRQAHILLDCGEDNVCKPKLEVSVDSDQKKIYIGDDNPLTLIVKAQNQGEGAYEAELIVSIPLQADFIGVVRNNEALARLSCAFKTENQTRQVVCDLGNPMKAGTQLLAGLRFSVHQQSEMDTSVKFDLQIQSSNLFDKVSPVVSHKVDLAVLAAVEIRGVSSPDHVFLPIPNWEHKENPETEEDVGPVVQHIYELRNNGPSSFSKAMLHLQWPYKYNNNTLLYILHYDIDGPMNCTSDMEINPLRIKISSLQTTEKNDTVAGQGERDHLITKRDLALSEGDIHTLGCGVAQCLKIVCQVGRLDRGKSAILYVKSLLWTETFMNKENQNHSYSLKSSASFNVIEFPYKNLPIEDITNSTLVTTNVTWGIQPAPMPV", "T1 sequence (P05106 27-718 limits assumed)": "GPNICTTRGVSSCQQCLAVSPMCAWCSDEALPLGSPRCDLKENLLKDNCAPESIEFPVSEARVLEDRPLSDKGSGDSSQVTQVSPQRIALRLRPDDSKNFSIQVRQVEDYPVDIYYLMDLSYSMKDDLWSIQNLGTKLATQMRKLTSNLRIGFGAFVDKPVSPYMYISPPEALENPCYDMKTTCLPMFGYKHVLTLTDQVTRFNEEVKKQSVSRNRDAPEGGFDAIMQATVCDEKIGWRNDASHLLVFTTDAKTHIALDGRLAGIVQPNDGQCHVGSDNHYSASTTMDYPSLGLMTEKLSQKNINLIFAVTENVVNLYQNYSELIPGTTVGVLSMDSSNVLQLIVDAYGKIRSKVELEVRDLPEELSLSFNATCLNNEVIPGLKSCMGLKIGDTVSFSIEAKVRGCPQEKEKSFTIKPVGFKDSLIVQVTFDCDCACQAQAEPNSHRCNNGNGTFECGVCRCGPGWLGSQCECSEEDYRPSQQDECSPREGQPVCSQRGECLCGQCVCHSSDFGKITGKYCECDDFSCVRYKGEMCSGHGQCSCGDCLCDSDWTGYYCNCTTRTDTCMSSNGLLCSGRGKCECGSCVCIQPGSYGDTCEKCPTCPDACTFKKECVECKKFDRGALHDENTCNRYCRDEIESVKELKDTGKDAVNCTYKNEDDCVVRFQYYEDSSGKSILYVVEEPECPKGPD", "assay": "Binding of soluble αvβ3 to immobilized sPLA2-IIA (ELISA-type assay)", "settings": "immobilized protein, 20 μg/ml coating", "description": "Binding of soluble αvβ3 to immobilized sPLA2-IIA sPLA2-IIA was immobilized to wells of 96 well microtiter plates and the remaining protein-binding sites were blocked by BSA as described (Mori, S. et al., J Biol Chem, 283:18066-18075 (2008)). Soluble recombinant αvβ3 at 5 μg/ml in Hepes-Tyrodes buffer supplemented with 1 mM MnCl2 was added to the well and incubated for 2 h. Bound αvβ3 was measured using anti-integrin β3 (mAb AV-10) followed by HRP-conjugated goat anti-mouse IgG and peroxidase substrates."}, "[2]": {"tested_on": "U937 human monocytic lymphoma cells", "assay": "Proliferation of U937 cells (MTS assay)", "format": "cell-based", "settings": "serum-starved 48 h, treated 48 h", "description": "U937 cells (αvβ3+, α4β1+) were plated in wells of 96-well plates (10,000 cells/well), and serum-starved for 48 h. After treatment with wt or mutant sPLA2-IIA for 48 h, we measured cell proliferation by MTS assays. […] U937 cells were serum-starved for 24 h, and stimulated with wt and mutant sPLA2-IIA (0.5 μg/ml) for 10 min at 37° C. Cell lysates were analyzed by western blotting with anti-phospho ERK1/2 or anti-ERK1/2 antibodies. The blot is representative of three independent experiments.\nas §1"}, "integrin αvβ3": {"target": "T2, integrin αvβ3 (Homo sapiens, UniProt P05106+P06756)", "T2 construct": "Recombinant soluble αvβ3 was synthesized as previously described; made in house", "T2 sequence (P06756 31-992 limits assumed)": "as the sequence (P06756 31-992 limits assumed) above", "T2 sequence (P05106 27-718 limits assumed)": "as the sequence (P05106 27-718 limits assumed) above", "assay": "Surface plasmon resonance study of sPLA2-IIA binding to immobilized soluble integrin αvβ3", "settings": "SPR, soluble αvβ3 immobilized on sensor chip, 1 mM Mn2+; listed as human sPLA2-IIA", "description": "Surface plasmon resonance study Recombinant soluble integrin αvβ3 was immobilized to Biacore Sensor chip CM5 (Biacore, Piscataway, N.J.) by the standard amine coupling method. Two-fold serial diluted sPLA2-IIA and its mutants R74E/R100E (ranging from 2 nM to 500 pM) and H47Q (ranging from 4 nM to 1 nM) in running buffer HBS-P buffer containing 1 mM of Mn^2+ were injected for 3 min at the flow rate of 50 μL/min. Then the sensor chip was washed with the running buffer alone at the same flow rate for another 5 min (the dissociation phase). Two consecutive one-minute injections of 0.5 M, pH 8 EDTA solution at the same flow rate were used to regenerate the chip for another cycle of injection. The resonance unit elicited from the reference flow cell was subtracted from the resonance unit elicited from the integrin flow cell to eliminate the non-specific protein-flow cell interaction and the bulk refractive index effect. The recorded binding curves were fitted with the “1:1 binding with drifting baseline model” by using the Biaevaluation Version 4.1."}}}
{"molecule": "wt sPLA2-IIA: Secretory phospholipase A2 group IIA, wild type, recombinant from bacteria BL21, refolded (protein, left off: small tags and cut ends) NLVNFHRMIKLTTGKEAALSYGFYGCHCGVGGRGSPKDATDRCCVTHDCCYKRLEKRGCGTKFLSYKFSNSGSRITCAKQDSCRSQLCECDKAAATCFARNKTTYNKKYQYYSNKHCRGSTPRC", "values": [{"measurement": "proliferation of α4-K562 cells", "setting": "α4-K562 cells", "value": "induced proliferation"}, {"measurement": "binding of α4 mutants (Tyr-189 and Gly-190 to Ala) to sPLA2-IIA", "setting": "[1]", "value": "blocked binding"}, {"measurement": "binding to soluble αvβ3", "setting": "soluble integrin αvβ3", "value": "bound"}, {"measurement": "proliferation of monocytic U937 cells", "setting": "[2]", "value": "induced robust proliferation"}, {"measurement": "Kd", "setting": "integrin αvβ3", "value": 200, "unit": "nM"}]}
